Sequences and labels used below:
B1: Protein piccolo, residues 1058 to 1114; numbered along this chain, Q9Y6V0 (parent)
chain: TCPLCKTELNIGSKDPPNFNTCTECKNQVCNLCGFNPTPHLTEIQEWLCLNCQTQRA

± gives the uncertainty stated by the source.

In this series the parent is B1. Kind of series: abundance fitness (aPCA) (normalised: wild type 0, dead -1); higher = more abundant; growth selection in yeast, the domain comes from the species named. As to conditions: Homo sapiens.
Consider TCPLCKTELNIGSKDPPNFNTCTEGKNQVCNLCGFNPTPHLTEIQEWLCLNCQTQRA, for which the abundance fitness was -0.682 ± 0.083.

On to TCPLCKTELNIGSKDPPNFNTCTEPKNQVCNLCGFNPTPHLTEIQEWLCLNCQTQRA, for which the abundance fitness is -0.577 ± 0.1.

On to TCPLCKTELNIGSKDPPNFNTCTELKNQVCNLCGFNPTPHLTEIQEWLCLNCQTQRA, for which the abundance fitness is -0.846 ± 0.082.

For TCPLCKTELNIGSKDPPNFNTCTERKNQVCNLCGFNPTPHLTEIQEWLCLNCQTQRA, the abundance fitness was -0.79 ± 0.079.

In the case of TCPLCKTELNIGSKDPPNFNTCTEQKNQVCNLCGFNPTPHLTEIQEWLCLNCQTQRA, the abundance fitness is -0.644 ± 0.15.

For the variant TCPLCKTELNIGSKDPPNFNTCTEWKNQVCNLCGFNPTPHLTEIQEWLCLNCQTQRA, the abundance fitness was -0.879 ± 0.11.

With TCPLCKTELNIGSKDPPNFNTCTEHKNQVCNLCGFNPTPHLTEIQEWLCLNCQTQRA, the abundance fitness was -0.529 ± 0.16.

For the variant TCPLCKTELNIGSKDPPNFNTCTDCKNQVCNLCGFNPTPHLTEIQEWLCLNCQTQRA, the abundance fitness came to 0.008 ± 0.14.

As to TCPLCKTELNIGSKDPPNFNTCTPCKNQVCNLCGFNPTPHLTEIQEWLCLNCQTQRA, the abundance fitness is -0.517 ± 0.1.

For TCPLCKTELNIGSKDPPNFNTCTTCKNQVCNLCGFNPTPHLTEIQEWLCLNCQTQRA, the abundance fitness was 0.034 ± 0.099.

As to TCPLCKTELNIGSKDPPNFNTCTMCKNQVCNLCGFNPTPHLTEIQEWLCLNCQTQRA, the abundance fitness is -0.06 ± 0.11.

On to TCPLCKTELNIGSKDPPNFNTCTLCKNQVCNLCGFNPTPHLTEIQEWLCLNCQTQRA, for which the abundance fitness is -0.363 ± 0.077.

With TCPLCKTELNIGSKDPPNFNTCTKCKNQVCNLCGFNPTPHLTEIQEWLCLNCQTQRA, the abundance fitness is -0.017 ± 0.12.

Take TCPLCKTELNIGSKDPPNFNTCTFCKNQVCNLCGFNPTPHLTEIQEWLCLNCQTQRA: the abundance fitness is -0.269 ± 0.099.

For the variant TCPLCKTELNIGSKDPPNFNTCTGCKNQVCNLCGFNPTPHLTEIQEWLCLNCQTQRA, the abundance fitness was -0.012 ± 0.073.

TCPLCKTELNIGSKDPPNFNTCTNCKNQVCNLCGFNPTPHLTEIQEWLCLNCQTQRA: the abundance fitness is -0.184 ± 0.13.

As for TCPLCKTELNIGSKDPPNFNTCTQCKNQVCNLCGFNPTPHLTEIQEWLCLNCQTQRA, the abundance fitness was -0.135 ± 0.11.

Turning to TCPLCKTELNIGSKDPPNFNTCTSCKNQVCNLCGFNPTPHLTEIQEWLCLNCQTQRA, the abundance fitness is -0.13 ± 0.084.

For the variant TCPLCKTELNIGSKDPPNFNTCTHCKNQVCNLCGFNPTPHLTEIQEWLCLNCQTQRA, the abundance fitness was -0.058 ± 0.13.

Take TCPLCKTELNIGSKDPPNFNTCTVCKNQVCNLCGFNPTPHLTEIQEWLCLNCQTQRA: the abundance fitness is 0.001 ± 0.086.

Regarding TCPLCKTELNIGSKDPPNFNTCTACKNQVCNLCGFNPTPHLTEIQEWLCLNCQTQRA, the abundance fitness is -0.061 ± 0.086.

For TCPLCKTELNIGSKDPPNFNTCTWCKNQVCNLCGFNPTPHLTEIQEWLCLNCQTQRA, the abundance fitness was -0.198 ± 0.083.

Regarding TCPLCKTELNIGSKDPPNFNTCTCCKNQVCNLCGFNPTPHLTEIQEWLCLNCQTQRA, the abundance fitness was -0.706 ± 0.088.

Consider TCPLCKTELNIGSKDPPNFNTCTRCKNQVCNLCGFNPTPHLTEIQEWLCLNCQTQRA, for which the abundance fitness was -0.01 ± 0.07.

Consider TCPLCKTELNIGSKDPPNFNTCTECKNGVCNLCGFNPTPHLTEIQEWLCLNCQTQRA, for which the abundance fitness is 0.038 ± 0.1.

Take TCPLCKTELNIGSKDPPNFNTCTECKNDVCNLCGFNPTPHLTEIQEWLCLNCQTQRA: the abundance fitness was -0.398 ± 0.26.

Consider TCPLCKTELNIGSKDPPNFNTCTECKNAVCNLCGFNPTPHLTEIQEWLCLNCQTQRA, for which the abundance fitness is 0.09 ± 0.13.

As for TCPLCKTELNIGSKDPPNFNTCTECKNCVCNLCGFNPTPHLTEIQEWLCLNCQTQRA, the abundance fitness came out at 0.018 ± 0.11.

As for TCPLCKTELNIGSKDPPNFNTCTECKNFVCNLCGFNPTPHLTEIQEWLCLNCQTQRA, the abundance fitness was -0.185 ± 0.12.

In the case of TCPLCKTELNIGSKDPPNFNTCTECKNHVCNLCGFNPTPHLTEIQEWLCLNCQTQRA, the abundance fitness is -0.206 ± 0.16.

Consider TCPLCKTELNIGSKDPPNFNTCTECKNEVCNLCGFNPTPHLTEIQEWLCLNCQTQRA, for which the abundance fitness was -0.164 ± 0.13.

As to TCPLCKTELNIGSKDPPNFNTCHECKNQVCNLCGFNPTPHLTEIQEWLCLNCQTQRA, the abundance fitness was -0.18 ± 0.3.

With TCPLCKTELNIGSKDPPNFNTCKECKNQVCNLCGFNPTPHLTEIQEWLCLNCQTQRA, the abundance fitness was -0.031 ± 0.28.

On to TCPLCKTELNIGSKDPPNFNTCYECKNQVCNLCGFNPTPHLTEIQEWLCLNCQTQRA, for which the abundance fitness was 0.024 ± 0.22.

As to TCPLCKTELNIGSKDPPNFNTCFECKNQVCNLCGFNPTPHLTEIQEWLCLNCQTQRA, the abundance fitness amounted to 0.288 ± 0.15.

Regarding TCPLCKTELNIGSKDPPNFNTCPECKNQVCNLCGFNPTPHLTEIQEWLCLNCQTQRA, the abundance fitness was -0.126 ± 0.15.

With TCPLCKTELNIGSKDPPNFNTCMECKNQVCNLCGFNPTPHLTEIQEWLCLNCQTQRA, the abundance fitness turned out to be 0.062 ± 0.17.

Take TCPLCKTELNIGSKDPPNFNTCVECKNQVCNLCGFNPTPHLTEIQEWLCLNCQTQRA: the abundance fitness stood at 0.067 ± 0.1.

Take TCPLCKTELNIGSKDPPNFNTCLECKNQVCNLCGFNPTPHLTEIQEWLCLNCQTQRA: the abundance fitness was -0.163 ± 0.1.

As for TCPLCKTELNIGSKDPPNFNTCCECKNQVCNLCGFNPTPHLTEIQEWLCLNCQTQRA, the abundance fitness came to 0.041 ± 0.12.

With TCPLCKTELNIGSKDPPNFNTCEECKNQVCNLCGFNPTPHLTEIQEWLCLNCQTQRA, the abundance fitness was -0.043 ± 0.14.

For TCPLCKTELNIGSKDPPNFNTCRECKNQVCNLCGFNPTPHLTEIQEWLCLNCQTQRA, the abundance fitness was -0.016 ± 0.089.

Turning to TCPLCKTELNIGSKDPPNFNTCSECKNQVCNLCGFNPTPHLTEIQEWLCLNCQTQRA, the abundance fitness came to 0.003 ± 0.1.

Take TCPLCKTELNIGSKDPPNFNTCDECKNQVCNLCGFNPTPHLTEIQEWLCLNCQTQRA: the abundance fitness is 0.041 ± 0.19.

Turning to TCPLCKTELNIGSKDPPNFNTCNECKNQVCNLCGFNPTPHLTEIQEWLCLNCQTQRA, the abundance fitness is -0.342 ± 0.23.

On to TCPLCKTELNIGSKDPPNFNTCQECKNQVCNLCGFNPTPHLTEIQEWLCLNCQTQRA, for which the abundance fitness was -0.36 ± 0.21.

For the variant TCPLCKTELNIGSKDPPNFNTCIECKNQVCNLCGFNPTPHLTEIQEWLCLNCQTQRA, the abundance fitness was -0.187 ± 0.15.

Values taken from the Human Domainome abundance scans (Beltran et al. 2025).
